This data set in a line: soluble on expression in E. coli; label from the status in PepcDB or PDB records.
“MACLCLANISWATVCANSTGVAEDEHYDLSNVFNSTNNQPGQIVVLPEKSGWVGVSAICPPGTLVNYTYRSYVTNFIVQETIDNYKYMQLNDYLLGAMSLVDSVMDIQFPPQNYIRMGTDPNVSQNLPFGVMDSRLIFRLKVIRPFINMVEIPRQVMFTVYVTSTPYDPLVTPVYTISFGGRVEVPQNCELNAGQIVEFDFGDIGASLFSAAGPGNRPAGVMPQTKSIAVKCTNVAAQAYLTMRLEASAVSGQAMVSDNQDLGFIVADQNDTPITPNDLNSVIPFRLDAAAAANVTLRAWPISITGQKPTEGPFSALGYLRVDYQ”: the “soluble on expression in E. coli” value is “not soluble”.

Turning to “MGSDKIHHHHHHMPRKTATATKLFVLDTNVLMHDPTSLFRFEEHDVYVPIATLEELDQHKKGMTEVSRNARQASRFLDEIVRKLDSIDEGVPLAPHSHNAATGRLFLQTQAISGDIPVNLPTSKVDNQILGVVLFLSRHHTKRQVILVSKDINMRIKARALGLPAEDYFNDKVLEDTDLLYPGLRELPADFWDTHGKGMESWQANGHTYYRVKGPLVASLLPNEFVFQEGASPLYAKVLKVEGKHAEMVTIRDFGHHKNNVWGITARNREQNFALNVLMDPEIDFVSLLGQAGTGKTLLTLAAGLAQVLDKKIYSEIIMTRVTVPVGEDIGFLPGTEEEKMTPWMGALEDNLDVLNKSDDEGGDWGRAATQDLIRSRIKVKSLNFMRGRTFLNKFLIIDEAQNLTPKQMKTLITRAGPGTKVVCLGNIAQIDTPYLTEGSSGLTYVVDHFKGWPHNGHVTLQRGERSRLADYAAEVL”, the “soluble on expression in E. coli” value is “not soluble”. Take “MWVEKKKDKKGNITYQYRERYTDPRTGKTQKVTTTLAKNTKQAENAARRELEIKIQKILTDYEEEKRLENLIKNEGVIPNDKTLEDMIKEWFDYIQDPKSKERKKGSTLSGYSYGIDSLLNEFLVIEKDKRIQDLTFDDIQAFYDRMIFDFEYQKSYIKRFRAIIRGAFTLAYKKRYIKNLDAINLSKIVTPAKTVDDLINEQVPRYLEKAEAEQIFQVLNGYNPLYTQILELQFHTGMRFGELIALESKNFHDGFLLDIHGTYDHATRSHTRGQKVPPKTRKSFRTIELGDAAVQIIKDRMYHNHFIKNKNSDFLFVTSNDRPYDLGTINSFIASHQIEFNTSTKVSTHVFRHTHISMLAEKSIPIQVIMDRVGHEDRETTEKIYMHVTKKQKTDLVKTLNEL”: the “soluble on expression in E. coli” value is “not soluble”. As to “MKDKKTISILGCGWLGLPLAEAFIQSGFRVKGSTTREERLSVIEAAGAEGYVLKADGGAWTGERLNDFLRCDILLIAIPPGTKRNANSTHAVEIGQLMDHIKKYSIAIKQLIYISSTSVYKNINSVVIESDTAIPSNIGNQILFQAEKHVHESVIERKLILRLGGLTGYDRMLGRFFAGKQELAGGNEPVNLVHRDDVVACILFLLKNGIGEQVFNICSPQHPSRKEFYTRLCDRFNLPEPH”, the “soluble on expression in E. coli” value is “not soluble”.

In the case of “MGSDKIHHHHHHMNSIPHLILGDIITPTQAGQSLLIKKGYVLINGDSIIEVGEQAHFNKEISYTVSNYPDHLILPGLIDTHSHLSQYAICGAGDLPLMDWLNTLVFPAETAFSSNLQRCQRHAELYMHACLGSGTTTINTMVTSSRQATEIVCDVAARLGIRAFIGLVLMDRNAPDNLLVDCAQAFKDLTVLKDRYHGKNNIHITVSPRFAVTCSAAMLRQAGEFARANKLILHTHLDKDEGFDELIQSLFSTAHDYFDVFESTQCIADKTVFAHGTLLSLHEMKRMGDYAKQVGISHCPSSNFSFAMGMAPVSFFKGLGIEVGLGSDSGGGDSLSLFDEMRSASFTNKALWRLDKKTALIDAKTWLYHATLGGAKLLGLEKQIGSIEAGKKADLIILDDRNNYPLAELSSLSQELALDELQYRLARVIARSCENKLVAVYIDGKKVYQ”, the “soluble on expression in E. coli” value is on record as “not soluble”. For the sequence “MTSENSESQDIWLTDEQQDVWLDVWTMRIGLPARLDAQLKEAAGVSHFEYFTMAQISMAPEHRVRMSELAELSDMTLSHLSRVVTRLEKAGWVKRVPDPDDGRATVAVLTDSGWEKVKATAPGHVKEVRRLVFDDLTPEELKVMGTAMKKIVNRLDMSNRLPRV”, the “soluble on expression in E. coli” value is listed as “not soluble”.

For “MGSDKIHHHHHHMNINQLKTFIVLADCLSVTETSKRLFCTQPAVSIKIRKLEETLNTVLFERINNRLYLTEQGKIFYSYAEQIISTLEMSVEHLHQYDDPNYGKIIIGASHFVGVYLLPQVIAEYRKLSPNVELRLEILSSQQLIQGLENHSIDFIIMSDQIYFDPQKYDVNRFLSDELILIVPPDHVLATYESCHFEQLCDELFIIKPKNSQTRKFLLQQFSKDQISLLKFMEINSLEGIKRCVMNGLGVSIISRFSVENELKMGMLKAVELDSFQFKRGINYIYHKEKCLSSAIGRFIGLLNILK”, the “soluble on expression in E. coli” value is “not soluble”. To “MGSDKIHHHHHHMQIESFKSLLPKYKCIFFDAFGVLKTYNGLLPGIENTFDYLKAQGQDYYIVTNDASRSPEQLADSYHKLGLFSITADKIISSGMITKEYIDLKVDGGIVAYLGTANSANYLVSDGIKMLPVSAIDDSNIGEVNALVLLDDEGFNWFHDLNKTVNLLRKRTIPAIVANTDNTYPLTKTDVAIAIGGVATMIESILGRRFIRFGKPDSQMFMFAYDMLRQKMEISKREILMVGDTLHTDILGGNKFGLDTALVLTGNTRIDDAETKIKSTGIVPTHICESAVIEL” belongs “not soluble”; to “MKFRGNFVCQPRAGPAESRPTRPFTPRPSATGSLFMSNQHFVSPDLIRQGFSRAMSDMYREEVPLYGALMELVAEVNAQVLERQPALARHLQSSGELQRLDLERHGAIRVGSAAELATLARLFAVMGMQPVGYYDLTPAGVPVHSTAFRAVHEAALQVSPFRVFTSLLRLELIDNPELRSFAEQVLARRQIFTPQVLELIQQAEAAGGLDAEDAERFIRQALETFRWHHHATVTAAQYASLSAQHRLIADVVAFKGPHINHLTPRTLDIDEVQRLMPARGITPKAVIEGPPRRECPILLRQTSFKALEESVAFTDQAQSQGSHSARFGEIEQRGAALTPKGRELYDRLLNAARDALGDFPNEANAQRYNQLMQEHFREFPDSHPAMREQGLAYFRYFVSETGLAARNQPQRPTTLAALLAAGHLSAEPLVYEDFLPVSAAGIFQSNLGDDSQSHYAGQSNRQAFEAALGRPTLDELQLYAQTQQRSLEHCAATLGLPALLEHHHHHH”, “not soluble”. With “MNPLFFLASPFLYLTYLIYYPNKGSFVSKPRNLQKMSSEPFKNVYLLPQTNQLLGLYTIIRNKNTTRPDFIFYSDRIIRLLVEEGLNHLPVQKQIVETDTNENFEGVSFMGKICGVSIVRAGESMEQGLRDCCRSVRIGKILIQRDEETALPKLFYEKLPEDISERYVFLLDPMLATGGSAIMATEVLIKRGVKPERIYFLNLICSKEGIEKYHAAFPEVRIVTGALDRGLDENKYLVPGLGDFGDRYYCV”, the “soluble on expression in E. coli” value was “not soluble”. Take “MSKKEETIFFRIEKENRPESSKKEEDENSTEEMTTLNHASVTLDHSAFAIADKDGFKMYQLNPLHFRMYKDYVIKVGPVRLVKQDGNSRRIIYVSALAGGRFAQNNLMIFDVARNEEYFEITTPSRYGPITNIHVSPNRLVALNPNRMFVWTYPDDIKQIRSEDIRSNPKGISAMSYDPTTAACYLAYPGFKTGSVQIMHLNALTARESKSPIVIEAHLTDIAQVALNCQGTLVATGSTKGTVIRVFDARTKGPLYELRRGTVQAHLQCMAFSPCSSYLAVASDKGTLHMFGIRDAEPQKKKNVLERSRGSSSIVKIQLDRPVMAIGFGKIPETPKNLQSIIAICADATYWRHEFYKDNTGNFTSHFGSYDELIEVANDSSFFRTPVE”: the “soluble on expression in E. coli” value is given as “not soluble”. As to “MGSDKIHHHHHHMLKQLILENWKSFRYAELPLDPLTVLIGTNASGKSNVVEALEFLQRIARGENVEAALAGDKTLVSIRGGVEWAARKQETGFTLQTLIQGEDETQDYLYTVQIQTIPEVRVIQEQITFENINQDNVVYNKKHLTVKNPIFPTKSGLENLELHVDINDLMQFFPPDQNILLGDKDFLETLNNVLLPFRNKACKFVVASLKNIFILNPIASNMRNYSRLADDLESDASNIAGVLAALPDDLKLEIELTLSTYIKDLPEGDIKKVWAEKVGRFGTDAMLYCQEEWKPGHSTDIDARSMSDGTLRFLAILTALLTRPEGSQIVIEEIDNGLHPSRAKLLVKILREIGSKRNIDILLTTHNPALLDALGPDTVPFVVVAHRDAETGESKLTLLENIDNFSKLFASYSLGEMTTKGAIERSLSHSE”, the “soluble on expression in E. coli” value is “not soluble”.

Source of the values: the DeepSol protein solubility set.
